Here are results for three molecules from US20190225669A1 (ACCELERON PHARMA, published 2019).

For assay [1], the target named is T1, BMP9 (UniProt Q9UK05 320-429).
T1 construct: also called GDF2
T1 sequence (looked up): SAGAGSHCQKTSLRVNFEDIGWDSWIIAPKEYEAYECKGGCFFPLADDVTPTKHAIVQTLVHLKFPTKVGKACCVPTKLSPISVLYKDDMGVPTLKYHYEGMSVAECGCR
Kind of assay: Biacore SPR; kinetics indeterminate (transient). The procedure: (§1) Ligands were injected and allowed to flow over the captured receptor protein.
(In general: Surface plasmon resonance follows binding to a sensor surface in real time, without labels.)

The target of the next assay is T2, BMP6 (UniProt P22004 382-513, limits assumed).
T2 sequence (looked up): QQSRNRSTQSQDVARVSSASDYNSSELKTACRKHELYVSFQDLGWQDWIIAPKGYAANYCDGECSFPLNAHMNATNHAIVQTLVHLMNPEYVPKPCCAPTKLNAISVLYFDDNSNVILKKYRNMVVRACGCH
Kind of assay: Biacore SPR. The procedure:
as §1

Another assay has as its target T3, GDF3 (UniProt Q9NR23 251-364).
T3 sequence (looked up): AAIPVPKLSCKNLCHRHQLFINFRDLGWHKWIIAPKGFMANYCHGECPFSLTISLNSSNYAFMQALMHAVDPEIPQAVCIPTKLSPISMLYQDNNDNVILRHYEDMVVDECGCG
Kind of assay: Biacore SPR. The protocol:
as §1

For assay [2], the target named is T4, activin B (UniProt P09529 293-407).
T4 sequence (looked up): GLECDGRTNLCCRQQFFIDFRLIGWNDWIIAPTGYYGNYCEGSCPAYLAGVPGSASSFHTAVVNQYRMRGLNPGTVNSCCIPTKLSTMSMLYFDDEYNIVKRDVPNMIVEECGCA
Kind of assay: Biacore SPR. The procedure: as §1

The target in another assay is T5, GDF8 (UniProt O14793 267-375).
T5 construct: also called myostatin
T5 sequence (looked up): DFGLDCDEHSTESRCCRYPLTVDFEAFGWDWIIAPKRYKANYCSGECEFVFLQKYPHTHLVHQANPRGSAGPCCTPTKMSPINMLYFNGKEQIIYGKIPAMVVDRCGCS
Kind of assay: Biacore SPR. The protocol: as §1

The target of assay [3] is T6, activin A (UniProt P08476 311-426).
T6 sequence (looked up): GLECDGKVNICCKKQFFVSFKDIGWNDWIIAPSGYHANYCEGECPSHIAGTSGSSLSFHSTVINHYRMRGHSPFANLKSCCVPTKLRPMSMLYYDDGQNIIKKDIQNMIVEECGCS
Kind of assay: Biacore SPR. The protocol: as §1

Assay [4] concerns the target T7, BMP10 (UniProt O95393 317-424).
T7 sequence (looked up): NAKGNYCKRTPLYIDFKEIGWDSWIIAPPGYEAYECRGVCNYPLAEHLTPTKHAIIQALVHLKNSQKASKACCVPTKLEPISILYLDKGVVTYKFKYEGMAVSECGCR
Kind of assay: Biacore SPR. The protocol: as §1

The next assay deals with T8, GDF11 (UniProt O95390 299-407).
T8 construct: also called BMP11
T8 sequence (looked up): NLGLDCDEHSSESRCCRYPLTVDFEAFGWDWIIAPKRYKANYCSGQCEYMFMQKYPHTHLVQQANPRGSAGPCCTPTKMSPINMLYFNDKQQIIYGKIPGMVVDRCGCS
Kind of assay: Biacore SPR. The protocol:
as §1

Assay [5] concerns the target T9, BMP15 (UniProt O95972 268-392).
T9 construct: also called GDF9b
T9 sequence (looked up): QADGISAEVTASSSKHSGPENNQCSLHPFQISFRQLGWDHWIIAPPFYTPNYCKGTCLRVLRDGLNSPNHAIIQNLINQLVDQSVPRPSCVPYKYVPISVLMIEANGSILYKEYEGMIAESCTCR
Kind of assay: Biacore SPR. The protocol:
as §1

Another assay has as its target T10, activin AB (UniProt P08476 311-426; P09529 293-407).
T10 sequence (looked up) 1: T6 sequence (looked up)
T10 sequence (looked up) 2: T4 sequence (looked up)
Kind of assay: Biacore SPR. The procedure: as §1

Assay [6] has as its target T4, activin B. Kind of assay: Biacore SPR. The procedure:
as §1
The source holds these as a separate data set.

The target in assay [7] is T6, activin A. Kind of assay: Biacore SPR. The procedure:
as §1
This is another data set of the same source.

Assay [8] addresses T7, BMP10. Kind of assay: Biacore SPR. The procedure: as §1
This is another data set of the same source.

In assay [9] the target is T9, BMP15. Kind of assay: Biacore SPR. The procedure: (§2) A Biacore™-based binding assay was used to compare ligand binding selectivity of the BMPRII-Fc:ALK2-Fc heterodimeric complex described above with that of BMPRII-Fc and ALK2-Fc homodimeric complexes. […] Ligands were injected and allowed to flow over the captured receptor protein.
This is another data set of the same source.

Assay [10] concerns the target T4, activin B. Kind of assay: Biacore SPR. The protocol: as §2
The source holds these as a separate data set.

Assay [11] addresses T7, BMP10. Kind of assay: Biacore SPR. The protocol:
as §2
The source holds these as a separate data set.

For the next assay, the target named is T11, BMP7 (UniProt P18075 293-431).
T11 sequence (looked up): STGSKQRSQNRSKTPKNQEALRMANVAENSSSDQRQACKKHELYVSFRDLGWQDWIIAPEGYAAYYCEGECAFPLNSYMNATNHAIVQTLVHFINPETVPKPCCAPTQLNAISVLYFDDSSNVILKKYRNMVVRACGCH
Kind of assay: Biacore SPR. The procedure:
as §2

Another assay has as its target T12, BMP5 (UniProt P22003 317-454, limits assumed).
T12 sequence (looked up): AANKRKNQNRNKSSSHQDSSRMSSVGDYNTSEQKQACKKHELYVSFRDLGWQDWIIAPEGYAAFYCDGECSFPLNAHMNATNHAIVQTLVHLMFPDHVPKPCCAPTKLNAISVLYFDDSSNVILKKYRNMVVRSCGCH
Kind of assay: Biacore SPR. The procedure: as §2

The target in assay [12] is T1, BMP9. Kind of assay: Biacore SPR. The protocol: as §2

Read-outs that look alike come from different tables or passages of the source.

B1: ActRIIB-Fc:ALK4-Fc heterodimer (Fc fusion)
chain 1: GRGEAETRECIYYNANWELERTNQSGLERCEGEQDKRLHCYASWRNSSGTIELVKKGCWLDDFNCYDRQECVATEENPQVYFCCCEGNFCNERFTHLPEAGGPEVTYEPPPTAPTGGGTHTCPPCPAPELLGGPSVFLFPPKPKDTLMISRTPEVTCVVVDVSHEDPEVKFNWYVDGVEVHNAKTKPREEQYNSTYRVVSVLTVLHQDWLNGKEYKCKVSNKALPAPIEKTISKAKGQPREPQVYTLPPSRKEMTKNQVSLTCLVKGFYPSDIAVEWESNGQPENNYKTTPPVLKSDGSFFLYSKLTVDKSRWQQGNVFSCSVMHEALHNHYTQKSLSLSPGK
chain 2: SGPRGVQALLCACTSCLQANYTCETDGACMVSIFNLDGMEHHVRTCIPKVELVPAGKPFYCLSSEDLRNTHCCYTDYCNRIDLRVPSGHLKEPEHPSMWGPVETGGGTHTCPPCPAPELLGGPSVFLFPPKPKDTLMISRTPEVTCVVVDVSHEDPEVKFNWYVDGVEVHNAKTKPREEQYNSTYRVVSVLTVLHQDWLNGKEYKCKVSNKALPAPIEKTISKAKGQPREPQVYTLPPSREEMTKNQVSLTCLVKGFYPSDIAVEWESNGQPENNYDTTPPVLDSDGSFFLYSDLTVDKSRWQQGNVFSCSVMHEALHNHYTQKSLSLSPG
notes: C-terminal Lys optional; also called ActRIIB-Fc:ALK4-Fc heterodimeric complex; ActRIIB-Fc:ALK4-Fc heteromeric complex
In the case of B1, the equilibrium dissociation constant (Kd) – broadly, a measure of binding affinity in units of concentration – with BMP9 [1] was 3.4 nM; in the assay with BMP6 it was 2.7 nM; in the assay with GDF3, 4.9 nM; with activin B [2] it was 0.006 nM; with GDF8 it was 0.55 nM; in the assay with activin A [3] it was 0.012 nM. The dissociation constant (Kd) was 0.074 nM with BMP10 [4] and 0.003 nM with GDF11. For the same molecule, the off-rate (koff) (commonly a measure of how fast the partners let go of each other) with BMP6 is 0.0055 s⁻¹; in the assay with GDF3 it was 0.017 s⁻¹; with activin B [2] it was 4e-05 s⁻¹; with GDF8, 0.00021 s⁻¹; with activin A [3], 0.00015 s⁻¹; with BMP10 [4], 0.0041 s⁻¹. The same molecule had a koff with GDF11 of 0.00011 s⁻¹. The kon (as a rule, the second-order rate constant of association) with BMP6 was 2e+06 M⁻¹ s⁻¹; with GDF3, 3.4e+06 M⁻¹ s⁻¹; with activin B [2] it was 7.1e+06 M⁻¹ s⁻¹; with GDF8 it was 390000 M⁻¹ s⁻¹; with activin A [3] it was 1.3e+07 M⁻¹ s⁻¹; in the assay with BMP10 [4] it was 5.6e+07 M⁻¹ s⁻¹. Also, the kon with GDF11 amounted to 3.8e+07 M⁻¹ s⁻¹.

B2: BMPRII-Fc:ALK4-Fc heterodimer (Fc fusion)
chain 1: SQNQERLCAFKDPYQQDLGIGESRISHENGTILCSKGSTCYGLWEKSKGDINLVKQGCWSHIGDPQECHYEECVVTTTPPSIQNGTYRFCCCSTDLCNVNFTENFPPPDTTPLSPPHSFNRDETGGGTHTCPPCPAPELLGGPSVFLFPPKPKDTLMISRTPEVTCVVVDVSHEDPEVKFNWYVDGVEVHNAKTKPREEQYNSTYRVVSVLTVLHQDWLNGKEYKCKVSNKALPAPIEKTISKAKGQPREPQVYTLPPSRKEMTKNQVSLTCLVKGFYPSDIAVEWESNGQPENNYKTTPPVLKSDGSFFLYSKLTVDKSRWQQGNVFSCSVMHEALHNHYTQKSLSLSPGK
chain 2: B1 chain 2
notes: C-terminal Lys optional; also called BMPRII-Fc:ALK4-Fc heterodimeric complex
Regarding B2, the Kd was more than 140 nM with BMP9 [1]; 1.7 nM with BMP15 [5]; 0.14 nM in the assay with activin AB; 1.7 nM with activin B [6]; 1.1 nM with activin A [7]; 2.2 nM in the assay with BMP10 [8]. In addition, the koff was 0.048 s⁻¹ with BMP15 [5]; 0.0005 s⁻¹ in the assay with activin AB; 0.0026 s⁻¹ with activin B [6]; 0.0022 s⁻¹ with activin A [7]; 0.0018 s⁻¹ in the assay with BMP10 [8]. For the same molecule, the kon in the assay with BMP15 [5] was found to be 2.8e+07 M⁻¹ s⁻¹; with activin AB, 3.6e+06 M⁻¹ s⁻¹; with activin B [6], 1.6e+06 M⁻¹ s⁻¹; in the assay with activin A [7], 2e+06 M⁻¹ s⁻¹; with BMP10 [8] it was 800000 M⁻¹ s⁻¹.

B3: BMPRII-Fc:ALK2-Fc heterodimer (Fc fusion)
chain 1: B2 chain 1
chain 2: MEDEKPKVNPKLYMCVCEGLSCGNEDHCEGQQCFSSLSINDGFHVYQKGCFQVYEQGKMTCKTPPSPGQAVECCQGDWCNRNITAQLPTKGKSFPGTQNFHLETGGGTHTCPPCPAPELLGGPSVFLFPPKPKDTLMISRTPEVTCVVVDVSHEDPEVKFNWYVDGVEVHNAKTKPREEQYNSTYRVVSVLTVLHQDWLNGKEYKCKVSNKALPAPIEKTISKAKGQPREPQVYTLPPSREEMTKNQVSLTCLVKGFYPSDIAVEWESNGQPENNYDTTPPVLDSDGSFFLYSDLTVDKSRWQQGNVFSCSVMHEALHNHYTQKSLSLSPG
notes: C-terminal Lys optional; also called BMPRII-Fc:ALK2-Fc heterodimeric complex
Regarding B3, the Kd with BMP15 [9] was 1.1 nM; with activin B [10], 5.2 nM; in the assay with BMP10 [11], 0.3 nM; with BMP7, 0.76 nM; with BMP5, 2.8 nM; in the assay with BMP9 [12], 0.5 nM. The koff in the assay with BMP15 [9] was found to be 0.011 s⁻¹; in the assay with activin B [10] it was 0.0031 s⁻¹; in the assay with BMP10 [11], 0.034 s⁻¹; with BMP7, 0.012 s⁻¹; in the assay with BMP5 it was 0.005 s⁻¹; in the assay with BMP9 [12], 0.0051 s⁻¹. The kon is 9.6e+06 M⁻¹ s⁻¹ with BMP15 [9]; 590000 M⁻¹ s⁻¹ in the assay with activin B [10]; 1.1e+08 M⁻¹ s⁻¹ with BMP10 [11]; 1.5e+07 M⁻¹ s⁻¹ with BMP7; 1.8e+06 M⁻¹ s⁻¹ in the assay with BMP5; 1e+07 M⁻¹ s⁻¹ in the assay with BMP9 [12].
